Test: yeast display, Sf9 membrane polyspecificity reagent, FACS + sequencing; frameworks hold sequencing errors
In short: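 Genes from sorted yeast were amplified by colony PCR, read by MiSeq 2 × 250 sequencing and filtered on CDR length. These cells carried a synthetic nanobody library in Saccharomyces cerevisiae BJ5465 and were sorted by FACS into low and high (top ~1%) gates on anti-HA and streptavidin fluorescence. Polyreactivity is labelled according to the gate of origin.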

Sequence | polyreactivity (PSR sort gate)
QVQLVESGGGLVQAGGSLRLSCAASGIIFPGNAMGWNSQAPGKVRELVAAITSSDGSTYYADSVKGRFTISRDNAKNTVYVQMNSLKPEDTALYYCAADFKGLFSSELDYWGQGTQVTVSS | low polyreactivity
QVQLVESGGGLDQAGGSLRLSGAASGSIFDNAMGWYSQAPGKERELVAAITSGGITNYADSVKGRFTISRDNAKNTVYLQMNSLKPEDTAVYYCNTLSPTQTKYDYWGQGTQVTVSS | low polyreactivity
QVQLVESGGGLVQAGGSLRLSCAASGSIFGFYAMGWYRQAPGKEREMVAAITRSGDSTYADSVKGRFTISRDNAKNTVYLQMNSLKPEDTAVYYCADDIDRSDVNSESYDYDYWGQGTQVTVSS | low polyreactivity
QVQLVESGGGLVQAGGSLRLSCAASGSIFVFYAMGWYRQAPGKERELVAAITRSGGRTYADSVKGRFTISRDNAKNTVYLQMYSLKPEDTAVYYCNAGTYWYNGRYTRSAHDYWGQGTQVTVSS | high polyreactivity
QVQLVESGGGLVQAGGSLRLSCAASGFIFDKNAMGWYRQAPGKERELVAAISSGGGSTDYADAVKGRFTISRDNAKNPDYLHMNSLKPEDTAVYYCARYWDQLQQYVISFGRYGMDYWGQGTQVTVSS | high polyreactivity
QVQLGESGGGLVQAGGSLRLSCAASGRILAKYAMGWSRQAPWKEREFVAAISYSGGSTYYADSVKGRFTISRDNAKNTVYLQMNSLKPEDTAVYYCAARYTFDRWKFGYWGQGTQVTVSS | high polyreactivity
QVQLVESGGGLVQAGGSLRLSCAASGRTFVRYAMGRYRQAPGKERELVAAISGDGASTYYADSVKGRFTISRDNAKNTVYLQMNSLKPEDPAVYYCNARSIRRYYYPDYDYWGQGTQVTVSS | high polyreactivity
QVQLVESGGGLVQAGGSLRLSCAASGSIFDKNAMGWYRQAPGKERELVAAISRSGGRTYYADSVKGRFTISRDNAKNTVYLQMNSLKPEDTAVYYCNAVYYYRPYWRQSTLSQYGYWGQGTQVTVSS | high polyreactivity
QVQLVESGGGLVQAGGRLRLSCAASGFIFAYYAMGWYRQAPGKERELVAAITIDGSTNYADSVKGRFTISRDNAKNTVYLQMNSLKPEDTAVYYCAAADHPPVCYGYWGQGTQVTVSS | low polyreactivity
QVQLVESGGGLVQAGGSLRLSCAASGRIFALYTMGWYIQAPGKERELVAAITTSGGSTYADSVKGRFTISRDNAKNTVYLQMNSLKPEDTAVYYCNAQGYEGLGEFDYWGQGTQLTVSS | low polyreactivity
QVQLVESGGGLVQEGGSLRLSCAAAGIIFIAYAMGWYREAPGKERELVADISIGGSTNYADSVKGRFTISRDNAKNTVYLQMTSQKPEDTAVYYCNAGGGFYGSTVEHDYWGQGTQVSVSS | low polyreactivity
QVQLVESGGGLVQAGGSLRLSCAASGLTFGDNAMGWYRQAPGKERELVAAITTSGPSTYYADSVKGRFTISRDNAKNTVYLQMNSLKPEDTAVYYCAADGLFYWVQYGYWGQGTQVTVSS | low polyreactivity
QVQLVESGGGLVQAGGSLRLSCAASGSIFQAYAMGWYRQAPGKERELVASISQSGDSTYYADSVKGRFTISRDNAKNTVYLQMNSLKPEDTAVYYCAAVQYGHRRGRVSVRRRLDYWGQGTQVTVSS | low polyreactivity
QVQLVESGGGLVQAGGSLRLSCAASGIIFWYYAMGWYRQAPGKERELVASIDWSGGSTYYADSVKGRFTISRDNAKNTVYLQMKSLKPEDTAVYDCNAGSDIYWSAATYGYWGQGTQVTVSS | high polyreactivity
QVQLVESGGGIVQAGGSLRLSCAASGRIFSSYAMGWYRQAPGKERELVAAITRGGSTYYADSVKGRFTISRDNANNTVHLQMNSLKPEDPAVYYCAARPPYRYWFWGNEDYWGQGTQVTVSS | high polyreactivity
QVQLVESGGGLVQAGGSLRLSCAASGRIFGGYAMGGYRQAPGKERELVAAISSRGTRTYYADSVKGRITISRDNAKNTVYLQMNSLKPEDTAVYYCATAYRGFHYSPLRELDYWGQGTQVTVSS | high polyreactivity

Sequence | polyreactivity (PSR sort gate)
QVQLVESGGGLVQAGGSLRLSCAASGFIFGGNAMGWYRQAPGKERELVAAISSGGRTYYADSVKGRFTISRDNAKNTVYLQMNSLKPEDTAVYYCNAAEQKYSIYYAFDTGPYDYWGQGTQVTVSS | low polyreactivity
QVQLVESGGGLVQAGGSLRLICAASGSIFGDNAMGWYRQAPGKERELVARISSGGNTYYADSVKGRFTISRDNAKNTVYLQMNSLKPEDTAVYYCNVYRYDGDYWGQGTQVTVSS | high polyreactivity
QVQLVESGGGLVQAGGSLRLSCAASGSTFDSNVMGWYRQAPGKEWELVAAISIGDSTNYADSVKGRFTISRDNAKKTVYLQMNSLKPEDTAVYSCNATYSRGGYWYFGFDWGQGTQVTVSS | low polyreactivity
QVHLVESGGGLVQAGGSLRLSCAASGRTFQWYAMGWYRQAPGKERELVAAIRYSAGSTYYADSVKGRFTISRDNAKNTVYLQMNSLKPEDTAVYYCAAEPYPYGPYYFLWLRYDYWGQGTHVTVSS | low polyreactivity
QVQLVESGGGLVQAGGSLRLSCAASGRIFGYAMGWYRQAPGKERELVAAITSSGGRTYYADSVKGRFTISRDNAKNTVYLQMNSLKPEDTAVYYCAAEYLAVSGYWYDYWGQGTQVTVSS | high polyreactivity
QFQLVESGGGLVQAGGSLRLSCAASGSISDIYAMGWYRQAPGKERELVASISSGGITNYADSVKGRFTISRDNAKNTVYLQMNSLKPEDTAVYYCAKDRYHISFFYQMEYWGQGTQVTVSS | low polyreactivity
QVQLVESGGGLVQAGGSLRLSCAASGSTFAFNAMGWYRQAPGKERELVAGITRSGGRTYFADSVKGRFTISRDYAKNTVYLQMNSLKPEDTAVYYCAARRSGSKSGLFDYWGQGTQVTVSS | low polyreactivity
QVQLVESGGGLLQAGGSLRLSCAASGSTFDTYDMGWYRQAPGKERELVAARNSGGDTNYADSVKGRFTISRDNAKNTVYLQMNSLKPEDTAVYYCAVVTYSYPNWYGYWGPGTQVTVSS | high polyreactivity
QVQLVESGGGLVQAGGSLRLSCAASGNIFPPYAMGWYRQAPGKERELVAAITRSGASTYYADSVKGRFTISRDNAKNTVYLQMNSLKPEDTAVYYCAVGVPGGYWKYYYWGQGTQVTVSS | high polyreactivity
QVQLVESGGGLVQAGGSLRLSCAASGSTFGLYAMGWYRQAPRKERELVAVIRWGSGRTYYADSVKGRFTISRDNAKNTVYLQMNSLKPEDTAVYYCAKDRSYGSSSKRFGYWGQGTQVTVSS | high polyreactivity
QVQLVESGGGLVQAGGSLRLSCAASGSTIYWYAMGWYRQAPGKERELVAAITDSGDDTYYADSVKGRFTISRDNAKKTVYLQMNSLKPVDTAVYYCAGEAWSVAPYEYWGQGTQVTVSS | low polyreactivity
QVQIVETGGGLVQAGGSLRLSCEASGSTFRNYAMGWYRQATGKERELDAAISSGGSTNYADSVKGRFTISRDNAKNTVFLQMNSLKPEYTAVYYCAAKAWYYPGSRIYYQYYYWGQGTQVTVSS | high polyreactivity
QVQLVESGGGLVQAGGSLRLSCAASGFIFRYYAMGWYRQAPGKERELVAAINRGGGTNYADSVKGRFTISRDNAKNTVYLQMNSLKPEDTAVYYCAAVIRTVRERYGYWGQGTQVTVSS | high polyreactivity
QVQLVESGGGLVQAGGSLRLSCAASGSTFVSYDMGWYRQAPGKERELVADISWSGVSTYADSVKGRFTISRDNAKNTVYLQMNSLKPEDTAVYYCATDDARRGYGYGYWGQGTQVTVSS | low polyreactivity
QVQLLESGGGLVQAGGSLRLSCMASGSILGDRMSWYRQAPGKEHELVATIYDGGITCYADSMKGRFTISRDNAKNTVYLQMNSLRPEDTAVYYCGASFEGYRYHVYCGQGTQVTVSS | low polyreactivity

From the nanobody polyreactivity screen of Harvey et al. (2022)
